Experimental data reported in patent US20220119534A1 (DRAGONFLY THERAPEUTICS, published 2022).
Where “and” joins values, the source holds several entries; their conditions need not be identical. Equal values may be shown once.

Legend:
[1] = biological target: T1, Human CLEC12A expressed on cells (Ba/F3-hCLEC12A, PL21, HL60) (human, UniProt Q5QGZ9 1-265); assay: flow cytometry on PL21 AML cells
T1 construct: Ba/F3 cells transduced with human CLEC12A; PL21 and HL60 AML lines express it endogenously; also called cell surface expressed CLEC12A
T1 sequence: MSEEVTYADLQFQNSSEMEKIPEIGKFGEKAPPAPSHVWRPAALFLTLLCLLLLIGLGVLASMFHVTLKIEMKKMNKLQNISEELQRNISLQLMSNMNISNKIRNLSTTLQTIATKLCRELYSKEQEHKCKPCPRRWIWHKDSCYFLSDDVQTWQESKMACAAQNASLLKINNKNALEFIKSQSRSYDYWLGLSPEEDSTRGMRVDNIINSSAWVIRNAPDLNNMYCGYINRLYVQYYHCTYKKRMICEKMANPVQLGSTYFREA
Excerpt: The EC50 values were derived from the cell binding curves using GraphPad Prism software (four parameter logistic non-linear regression curve fitting model).

[2] = biological target: T2, Human CLEC12A-His (recombinant, K244 WT) (human, UniProt Q5QGZ9 65-265); assay: SPR 37C, AB0089 captured on anti-hFc, two-state fit
T2 construct: Made in house (Dragonfly Tx); also called hCLEC12A; hCLEC12A-His; not shown: His tag
T2 sequence: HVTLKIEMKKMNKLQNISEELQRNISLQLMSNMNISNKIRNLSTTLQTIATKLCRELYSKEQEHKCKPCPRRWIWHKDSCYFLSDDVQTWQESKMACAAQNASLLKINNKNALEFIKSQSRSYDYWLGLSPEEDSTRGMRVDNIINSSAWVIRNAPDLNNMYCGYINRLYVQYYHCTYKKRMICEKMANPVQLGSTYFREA

[3] = biological target: T3, De-glycosylated human CLEC12A (human, UniProt Q5QGZ9 65-265, treated with PNGaseF (N-linked glycans removed)); assay: SPR, two-state fit (kd1)
T3 construct: Same recombinant antigen as m2 after PNGaseF; also called De-glycosylated CLEC12A
T3 sequence: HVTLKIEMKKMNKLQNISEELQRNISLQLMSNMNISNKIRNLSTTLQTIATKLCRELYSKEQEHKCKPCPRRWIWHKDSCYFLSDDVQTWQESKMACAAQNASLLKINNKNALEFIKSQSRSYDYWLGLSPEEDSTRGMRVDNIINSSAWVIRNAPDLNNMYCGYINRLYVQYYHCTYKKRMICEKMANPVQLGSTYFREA
Description: (§1) Briefly, human Fc specific antibodies were covalently immobilized at a density ˜8000-10000 resonance units (RU) on carboxy methyl dextran matrix of a CM5 biosensor chip via amine-coupling chemistry to create an anti-hFc IgG chip. […] Association was monitored for 300 seconds and dissociation was monitored for 600 seconds. Surfaces were regenerated between cycles with three pulses of 10 mM glycine-HCl, pH 1.7 injected for 20 seconds at 100 μl/min. HBS-EP+ (1×) with 0.1 mg/ml BSA was used as running buffer throughout the experiment. Experiments were performed at physiological temperature of 37° C. To obtain kinetic rate constants and overall binding affinity, double-referenced data were fit to a two-state kinetic model using Biacore 8K Insight Evaluation software (Cytiva).

[4] = biological target: T4, De-sialylated human CLEC12A (human, UniProt Q5QGZ9 65-265, treated with neuraminidase (terminal sialic acids removed)); assay: SPR, two-state fit (kd1)
T4 construct: Same recombinant antigen as m2 after neuraminidase; also called De-sialylated CLEC12A
T4 sequence: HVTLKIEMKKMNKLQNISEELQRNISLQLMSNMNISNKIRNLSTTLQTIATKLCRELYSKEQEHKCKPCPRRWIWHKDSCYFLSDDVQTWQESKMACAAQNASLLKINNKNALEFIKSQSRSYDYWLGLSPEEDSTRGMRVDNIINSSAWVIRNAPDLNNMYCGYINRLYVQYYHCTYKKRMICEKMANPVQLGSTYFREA
Description: as §1

[5] = biological target: T2, Human CLEC12A-His (recombinant, K244 WT); assay: SPR, two-state fit; after low pH hold
Description: as §1

[6] = biological target: T2, Human CLEC12A-His (recombinant, K244 WT); assay: HuProt human proteome microarray, AB0089 at 1 µg/ml
Excerpt: (§2) An array consisting of 22,000 full-length human proteins are expressed in S. cerevisiae yeast, purified, and are subsequently printed in duplicate on a microarray glass slide that allows thousands of interactions to be profiled in a high-throughput manner. […] S score is the difference of Z score of a given protein and the one rank next to it.

[7] = biological target: BC089418 (HuProt array JHU16002.P168E09) (human); assay: as above
Excerpt: as §2

[8] = biological target: T5, ECDHDC1 (HuProt array JHU25034.P240F11) (human); assay: as above
T5 construct: Name as printed; may be a misprint of a gene name
T5 sequence (Q9NTX5 whole entry): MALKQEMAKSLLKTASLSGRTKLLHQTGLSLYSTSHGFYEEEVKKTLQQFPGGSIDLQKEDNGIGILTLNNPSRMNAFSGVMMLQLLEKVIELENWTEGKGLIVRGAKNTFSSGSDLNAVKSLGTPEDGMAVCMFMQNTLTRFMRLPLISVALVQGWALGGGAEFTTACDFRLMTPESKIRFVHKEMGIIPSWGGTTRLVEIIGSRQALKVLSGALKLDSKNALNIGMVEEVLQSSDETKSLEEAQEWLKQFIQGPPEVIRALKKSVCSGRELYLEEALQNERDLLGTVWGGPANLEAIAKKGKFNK
Excerpt: as §2

B1: AB0089 TriNKET (bispecific antibody, human IgG1, kappa)
chain: QLQLQESGPGLVKPSETLSLTCTVSGFSLTNYGLHWIRQPPGKCLEWIGVIWVGGATDYNPSLKSRVTISVDTSKNQFSLKLSSVQAADTAVYYCAKGDYGDTLDYWGQGTLVTVSSGGGGSGGGGSGGGGSGGGGSDIQMTQSPSSLSASVGDRVTITCHASQNINFWLSWYQQKPGKAPKLLIYEASNLHTGVPSRFSGSGSGTDFTLTISSLQPEDFATYYCQQSHSYPLTFGCGTKLEIKGSDKTHTCPPCPAPELLGGPSVFLFPPKPKDTLMISRTPEVTCVVVDVSHEDPEVKFNWYVDGVEVHNAKTKPREEQYNSTYRVVSVLTVLHQDWLNGKEYKCKVSNKALPAPIEKTISKAKGQPREPRVYTLPPCRDELTKNQVSLTCLVKGFYPSDIAVEWESNGQPENNYKTTPPVLVSDGSFTLYSKLTVDKSRWQQGNVFSCSVMHEALHNHYTQKSLSLSPG
heavy: EVQLVESGGGLVKPGGSLRLSCAASGFTFSSYSMNWVRQAPGKGLEWVSSISSSSSYIYYADSVKGRFTISRDNAKNSLYLQMNSLRAEDTAVYYCARGAPIGAAAGWFDPWGQGTLVTVSSASTKGPSVFPLAPSSKSTSGGTAALGCLVKDYFPEPVTVSWNSGALTSGVHTFPAVLQSSGLYSLSSVVTVPSSSLGTQTYICNVNHKPSNTKVDKKVEPKSCDKTHTCPPCPAPELLGGPSVFLFPPKPKDTLMISRTPEVTCVVVDVSHEDPEVKFNWYVDGVEVHNAKTKPREEQYNSTYRVVSVLTVLHQDWLNGKEYKCKVSNKALPAPIEKTISKAKGQPREPQVCTLPPSRDELTENQVSLTCLVKGFYPSDIAVEWESNGQPENNYKTTPPVLDSDGSFFLYSWLTVDKSRWQQGNVFSCSVMHEALHNHYTQKSLSLSPG
light: DIQMTQSPSSVSASVGDRVTITCRASQGISSWLAWYQQKPGKAPKLLIYAASSLQSGVPSRFSGSGSGTDFTLTISSLQPEDFATYYCQQGVSFPRTFGGGTKVEIKRTVAAPSVFIFPPSDEQLKSGTASVVCLLNNFYPREAKVQWKVDNALQSGNSQESVTEQDSKDSTYSLSSTLTLSKADYEKHKVYACEVTHQGLSSPVTKSFNRGEC
notes: F3' format heterodimer of three chains; human IgG1 Fc with EW-RVT and Y349C/S354C mutations; also called AB0089 Lot AB0089-002; CLEC12A TriNKET AB0089
B1 was tested, and the EC50 [1] was 450 pM, the Kd [2] was 690 pM and 750 pM and 780 pM and the koff [3] was 0.00633 s⁻¹. The koff [4] was 0.0329 s⁻¹, the Kd [5] was 700 pM and the Z score [6] was 151. For the same binder, the Z score [7] was 3.7 and the Z score [8] was 3.75.
